Legend:
[1] = molecular target: (+)-δ-cadinene synthase (DCS, isozyme XC1) (Gossypium arboreum, UniProt Q39761)
[2] = test system: CC(C)=CCC/C(C)=C/CC/C(C)=C/CO[P@@](=O)(O)OP(=O)(O)O; assay: purified protein; type: biochemical, Gossypium arboreum; details: Mg2+

(+)-δ-cadinene synthase (DCS, isozyme XC1), sequence (Q39761 whole entry): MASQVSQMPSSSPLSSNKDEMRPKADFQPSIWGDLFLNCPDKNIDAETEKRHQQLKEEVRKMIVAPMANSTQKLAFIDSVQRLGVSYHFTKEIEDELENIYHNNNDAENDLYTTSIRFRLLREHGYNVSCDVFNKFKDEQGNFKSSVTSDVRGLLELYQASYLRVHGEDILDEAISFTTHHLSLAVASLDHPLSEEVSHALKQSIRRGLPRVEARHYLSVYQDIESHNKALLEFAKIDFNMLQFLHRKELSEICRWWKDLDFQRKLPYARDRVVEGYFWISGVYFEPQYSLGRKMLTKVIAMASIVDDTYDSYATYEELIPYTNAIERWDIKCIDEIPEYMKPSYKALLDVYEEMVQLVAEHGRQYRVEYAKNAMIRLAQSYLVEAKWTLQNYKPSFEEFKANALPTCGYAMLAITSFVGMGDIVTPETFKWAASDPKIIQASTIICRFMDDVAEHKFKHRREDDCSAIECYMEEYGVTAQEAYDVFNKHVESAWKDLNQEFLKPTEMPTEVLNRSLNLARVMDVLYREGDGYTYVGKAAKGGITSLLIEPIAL

Km [1] | Molecule | Km [2]
3.2 ± 0.5 µM | CC(C)=CCC/C(C)=C/CC/C(C)=C/CO[P@@](=O)(O)OP(=O)(O)O [FPP] | –
– | (+)-δ-cadinene synthase (DCS, isozyme XC1) (Gossypium arboreum; D308A) | 43 ± 16 µM
– | (+)-δ-cadinene synthase (DCS, isozyme XC1) (Gossypium arboreum; D451A) | 2.4 ± 0.3 µM
– | (+)-δ-cadinene synthase (DCS, isozyme XC1) (Gossypium arboreum; D452A) | 3.1 ± 1.2 µM

From publication PMC2714943 (Biochemistry, 2009)
